Results reported in paper PMC7954794, “Protein context shapes the specificity of SH3 domain-mediated interactions in vivo” (Nature Communications, 2021).

System: growth of yeast strains under 51 stress conditions
Test: Growth assays in 51 stress conditions (Fig. 1E-F, S2D, S5B)
Assay type: cell-based, Saccharomyces cerevisiae
Design: key to Growth (Fig. S2D) / growth of ABP1 SH3-swapped strains in stress condition: log2 colony size, average of median per strain (growth score)
Conditions: ABP1 SH3-swapped strains
Procedure, shortened: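 Yeast WT, SH3-deleted, KO, SH3-swapped and SH3-shuffled strains pinned in 1536 format, 12 replicates each; pregrown on YPD 2 days at 30 °C, then replicated onto 51 media at 37 °C and imaged every 2 h. Growth score = mean of per-plate median log2 colony size at 74 h.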

B1: LSB3 (protein)
chain: MGINNPIPRSLKSETKKAAKILASFVKPNQVFGADQVIPPDVLKRAKGLAIITILKAGFLFSGRAGSGVIVARLKDGTWSAPSAIAMAGAGAGGMVGIELTDFVFILNTQDAVKSFSEFGTITLGGNVSVSAGPLGRSAEAAASASAGGVAAVFAYSKSKGLFAGVSVEGSAIIERREANRKFYGDNCTAKMILSGRIRPPPAVDPLFRVLESRAFNYRPSNGGRGSFDDDEDDYYDDDDYYNDIPSSFSSTDASSTRPNTRSTRRRAQSGSRYTFDDDDDDDDYGTGYSRNSRLAPTNSGGSGGKLDDPSGASSYYASHRRSGTAQSRARSSRNRWADDEYDDYDDDYESGYRRGNGRDRTKDREVDDLSNRFSKSRISSASTPQTSQGRFTAPTSPSTSSPKAVALYSFAGEESGDLPFRKGDVITILKKSDSQNDWWTGRVNGREGIFPANYVELV
modifications: left off: DHFR F[3], C-terminal, kept
Growth (Fig. S2D) (Bathophenanthroline.0.1uM): 10.8613
Growth (Fig. S2D) (Bathophenanthroline.10uM): 10.7004
Growth (Fig. S2D) (Bathophenanthroline.1uM): 10.8044
Growth (Fig. S2D) (CaCl2.100mM): 10.8415
Growth (Fig. S2D) (CaCl2.250mM): 10.752
Growth (Fig. S2D) (CaCl2.500mM): 10.2861
Growth (Fig. S2D) (Caffein.10mM): 10.1331
Growth (Fig. S2D) (Caffein.2mM): 11.0359
Growth (Fig. S2D) (CdCl2.100uM): 9.517
Growth (Fig. S2D) (CdCl2.10uM): 10.8992
Growth (Fig. S2D) (CdCl2.50uM): 9.9
Growth (Fig. S2D) (CuSO4.1mM): 10.501
Growth (Fig. S2D) (CuSO4.5mM): 7.988
Growth (Fig. S2D) (Cycloheximide.0.05.uM): 11.1308
Growth (Fig. S2D) (Cycloheximide.0.2.uM): 10.6758
Growth (Fig. S2D) (Cycloheximide.0.5.uM): 10.143
Growth (Fig. S2D) (DMSO.2.): 11.0244
Growth (Fig. S2D) (DMSO.6.): 9.802
Growth (Fig. S2D) (DMSO.8.): 9.136
Growth (Fig. S2D) (Ethanol.2.): 10.7759
Growth (Fig. S2D) (Ethanol.6.): 10.3185
Growth (Fig. S2D) (Ethanol.8.): 10.0689
Growth (Fig. S2D) (Galactose.2.): 10.7876
Growth (Fig. S2D) (Glycerol.2.): 9.905
Growth (Fig. S2D) (Hydroxyurea.25mM): 10.8417
Growth (Fig. S2D) (Hygromycin.190uM): 11
Growth (Fig. S2D) (Hygromycin.19uM): 10.9944
Growth (Fig. S2D) (Hygromycin.95uM): 11.0899
Growth (Fig. S2D) (MMS.0.004.): 10.9826
Growth (Fig. S2D) (MMS.0.02.): 10.7326
Growth (Fig. S2D) (MMS.0.04.): 10.0186
Growth (Fig. S2D) (Menadione.100uM): 10.5511
Growth (Fig. S2D) (Menadione.200uM): 10.5189
Growth (Fig. S2D) (Menadione.50uM): 10.8398
Growth (Fig. S2D) (NaCl.0.25M): 10.7826
Growth (Fig. S2D) (NaCl.1M): 9.561
Growth (Fig. S2D) (Nitroquinoline.10uM): 10.7432
Growth (Fig. S2D) (Nitroquinoline.50uM): 10.6203
Growth (Fig. S2D) (Nystatin.0.01uM): 11.0314
Growth (Fig. S2D) (Nystatin.0.1uM): 11.0473
Growth (Fig. S2D) (Raffinose.2.): 11.0154
Growth (Fig. S2D) (Rapamycin.10nM): 9.815
Growth (Fig. S2D) (Rapamycin.50nM): 9.462
Growth (Fig. S2D) (SC.pH3): 10.4429
Growth (Fig. S2D) (SC.pH6): 11.0914
Growth (Fig. S2D) (SDS.0.01.): 10.9846
Growth (Fig. S2D) (SDS.0.02.): 11.0384
Growth (Fig. S2D) (SDS.0.05.): 10.8514
Growth (Fig. S2D) (Sorbitol.10mM): 10.9664
Growth (Fig. S2D) (Sorbitol.1mM): 11.0248
Growth (Fig. S2D) (Sorbitol.5mM): 10.914

B2: MYO3 (protein, UniProt P36006 1-1272, looked up)
Myosin-3: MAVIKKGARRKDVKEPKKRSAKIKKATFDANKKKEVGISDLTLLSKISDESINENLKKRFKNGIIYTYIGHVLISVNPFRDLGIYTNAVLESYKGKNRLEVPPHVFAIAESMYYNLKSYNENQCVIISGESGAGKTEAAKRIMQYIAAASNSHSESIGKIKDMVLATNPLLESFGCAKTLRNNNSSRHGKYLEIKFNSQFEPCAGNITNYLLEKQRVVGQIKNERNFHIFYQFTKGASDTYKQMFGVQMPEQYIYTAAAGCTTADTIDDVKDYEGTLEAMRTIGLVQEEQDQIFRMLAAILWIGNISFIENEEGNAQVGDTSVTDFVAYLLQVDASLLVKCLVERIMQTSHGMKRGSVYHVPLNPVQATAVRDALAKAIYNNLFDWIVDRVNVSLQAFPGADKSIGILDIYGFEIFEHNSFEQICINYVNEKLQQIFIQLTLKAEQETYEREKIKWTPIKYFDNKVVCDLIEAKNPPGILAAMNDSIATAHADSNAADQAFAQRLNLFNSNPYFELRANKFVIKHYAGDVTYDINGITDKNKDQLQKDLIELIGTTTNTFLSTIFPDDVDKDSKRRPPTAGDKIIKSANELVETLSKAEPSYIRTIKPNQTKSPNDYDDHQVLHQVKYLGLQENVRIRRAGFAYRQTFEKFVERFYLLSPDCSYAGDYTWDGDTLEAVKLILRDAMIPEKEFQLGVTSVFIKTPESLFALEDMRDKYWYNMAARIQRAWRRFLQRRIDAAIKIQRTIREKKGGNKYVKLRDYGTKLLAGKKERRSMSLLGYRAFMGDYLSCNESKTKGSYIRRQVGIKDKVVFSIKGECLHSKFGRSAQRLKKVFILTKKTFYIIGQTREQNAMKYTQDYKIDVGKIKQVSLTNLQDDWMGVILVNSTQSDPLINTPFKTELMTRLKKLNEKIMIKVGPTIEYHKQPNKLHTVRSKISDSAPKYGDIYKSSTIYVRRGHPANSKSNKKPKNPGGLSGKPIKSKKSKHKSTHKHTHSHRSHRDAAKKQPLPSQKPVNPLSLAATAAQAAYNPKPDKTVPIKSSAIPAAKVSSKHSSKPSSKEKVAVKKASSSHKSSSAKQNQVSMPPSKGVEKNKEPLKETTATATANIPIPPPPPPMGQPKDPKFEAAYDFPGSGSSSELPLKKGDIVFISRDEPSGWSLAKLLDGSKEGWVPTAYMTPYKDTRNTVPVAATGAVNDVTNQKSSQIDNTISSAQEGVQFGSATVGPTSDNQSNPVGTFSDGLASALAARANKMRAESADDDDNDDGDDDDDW
Growth (Fig. S2D) (Bathophenanthroline.0.1uM): 10.752
Growth (Fig. S2D) (Bathophenanthroline.10uM): 10.5714
Growth (Fig. S2D) (Bathophenanthroline.1uM): 10.7108
Growth (Fig. S2D) (CaCl2.250mM): 10.7527
Growth (Fig. S2D) (CaCl2.500mM): 10.1691
Growth (Fig. S2D) (Caffein.10mM): 9.976
Growth (Fig. S2D) (Caffein.2mM): 10.8692
Growth (Fig. S2D) (CdCl2.100uM): 9.202
Growth (Fig. S2D) (CdCl2.10uM): 10.8049
Growth (Fig. S2D) (CdCl2.50uM): 9.536
Growth (Fig. S2D) (CuSO4.1mM): 10.0301
Growth (Fig. S2D) (CuSO4.5mM): 7.358
Growth (Fig. S2D) (Cycloheximide.0.05.uM): 11.0001
Growth (Fig. S2D) (Cycloheximide.0.2.uM): 10.4991
Growth (Fig. S2D) (Cycloheximide.0.5.uM): 9.9209
Growth (Fig. S2D) (DMSO.2.): 10.998
Growth (Fig. S2D) (DMSO.6.): 9.853
Growth (Fig. S2D) (DMSO.8.): 9.243
Growth (Fig. S2D) (Ethanol.2.): 10.6338
Growth (Fig. S2D) (Ethanol.6.): 10.0843
Growth (Fig. S2D) (Ethanol.8.): 9.865
Growth (Fig. S2D) (Galactose.2.): 10.6373
Growth (Fig. S2D) (Glycerol.2.): 8.89
Growth (Fig. S2D) (Hydroxyurea.25mM): 10.6592
Growth (Fig. S2D) (Hygromycin.190uM): 10.9229
Growth (Fig. S2D) (Hygromycin.19uM): 10.8956
Growth (Fig. S2D) (Hygromycin.95uM): 10.9112
Growth (Fig. S2D) (MMS.0.004.): 10.8802
Growth (Fig. S2D) (MMS.0.02.): 10.4477
Growth (Fig. S2D) (MMS.0.04.): 9.333
Growth (Fig. S2D) (Menadione.100uM): 10.5316
Growth (Fig. S2D) (Menadione.200uM): 10.3415
Growth (Fig. S2D) (Menadione.50uM): 10.7191
Growth (Fig. S2D) (NaCl.0.25M): 10.6458
Growth (Fig. S2D) (NaCl.1M): 9.0624
Growth (Fig. S2D) (Nitroquinoline.10uM): 10.5815
Growth (Fig. S2D) (Nitroquinoline.50uM): 10.5108
Growth (Fig. S2D) (Nystatin.0.01uM): 10.9576
Growth (Fig. S2D) (Nystatin.0.1uM): 10.9795
Growth (Fig. S2D) (Raffinose.2.): 10.915
Growth (Fig. S2D) (Rapamycin.10nM): 9.682
Growth (Fig. S2D) (Rapamycin.50nM): 9.448
Growth (Fig. S2D) (SC.pH3): 10.2912
Growth (Fig. S2D) (SC.pH6): 10.9261
Growth (Fig. S2D) (SDS.0.01.): 10.9246
Growth (Fig. S2D) (SDS.0.02.): 10.9437
Growth (Fig. S2D) (SDS.0.05.): 10.7731
Growth (Fig. S2D) (Sorbitol.10mM): 10.9112
Growth (Fig. S2D) (Sorbitol.1mM): 11.0073
Growth (Fig. S2D) (Sorbitol.5mM): 10.8833
